# Earlier results in article PMC10876879, “Sustained silencing peanut allergy by xanthopurpurin is associated with suppression of peripheral and bone marrow IgE-producing B cell” (Frontiers in Immunology, 2024).
# B1: TNX-901: anti-IgE antibody (antibody, chains of the INN, looked up, V domains shown)
# VH: QVQLVQSGAEVKKPGASVKVSCKASGYTFSMYWLEWVRQAPGHGLEWVGEISPGTFTTNYNEKFKARATFTADTSTNTAYMELSSLRSEDTAVYYCARFSHFSGSNYDYFDYWGQGTLVTVSS
# VL: DILLTQSPGTLSLSPGERATLSCRASQSIGTNIHWYQQKPGQAPRLLIKYASESISGIPSRFSGSGSGTDFTLTISRLEPEDFAMYYCQQSDSWPTTFGQGTKVEIK
# Test system: IgE
# Design: method as in PMID 15025403, PMID 12637608
# Conditions: double-blind, randomized trial, 2003
molecule,measurement,value
B1,Threshold of the sensitivity of patients to peanut,significantly increased
